Like-named read-outs stand apart in the source and are kept apart here.
How the values were obtained:
[1] = biological target: C. crescentus DriD DNABD, DriD(1-70) (C. crescentus); experiment: MST
[2] = biological target: C. crescentus DriD(78-327) (C. crescentus); experiment: SEC
[3] = biological target: C. crescentus DriD(78-327) (C. crescentus); experiment: SEC; remark: listed apart in the source

Kd [1]	stoichiometry N [2]	stoichiometry N [3]	Substance
15 µM	–	–	His-tag free C. crescentus DriD(78-327) (domain or fragment)
–	2	2	C. crescentus DriD(78-327) (domain or fragment)

From publication PMC12041258
